These results are taken from patent publication US8252737B2, “Antimicrobial peptides and methods of use” (priority 2004, dated 2012).

For data set [1] the following is noted: 50% TFE, 5° C., previous study (29); cited from earlier work.
Data set [2] is described as follows: RP-HPLC temperature profiling (hydrophobicity and self-association/dimerization parameter PA). Type of data set: physicochemical. How it is done: The retention time data for the peptides is shown in Table 5 which records retention times at 5° C., the maximal retention times and retention times at 80° C. during the temperature profiling. Temperatures of 5° C. and 80° C. were the lower and upper temperature limits of temperature profiling in RP-HPLC, representing dimerization of the peptides at 5° C. and the monomerization of peptides at 80° C. due to dissociation of the dimers. The maximal retention times represent the threshold points at which peptides transform from dimeric to monomeric form. Among the non-polar face substituted peptides, peptides with more hydrophobic substitutions (whether L- or D-amino acid substitutions) were more retained during RP-HPLC, i.e., peptides were eluted in the order of Lys, Gly, Ser, Ala, Val and Leu (Table 5). In addition, on the non-polar face, the L-analogs were always more retained than the D-diastereomers (Table 5, FIG. 5). […] In contrast, on the polar face, the elution order of peptides was not correlated with the order of amino acid side-chain hydrophobicity, e.g., PAL and PSL were more retained than PVL (Table 5); PSD was the most retained peptide among the D-amino acid substituted analogs on the polar face (Table 5).
The ability of the D-peptides to self-associate was determined by RP-HPLC temperature profiling. […] As expected, L- and D-peptide enantiomers were totally inseparable over this temperature range, since each pair of peptides is identical in sequence and must adopt identical conformations on interacting with the reversed-phase matrix, whether in an all-L- or all-D-conformation. RP-HPLC retention behavior has been frequently utilized to represent overall peptide hydrophobicity (53, 26). In the present study, the hydrophobicity of the three peptide pairs is in the order V681/D-V681>[…]>NKL/D-NKD (Table 4), which agrees with the change in hydrophobicity of the substitutions at position 13 in order of the most hydrophobic to the least hydrophobic amino acid residue (Val in V681>Ala in NA>Lys in NK) (54). […] For example, the retention times of peptides V681/D-V681 increase with increasing temperature (up to ˜30° C.) followed by a retention time decrease with a further temperature increase. […] Since peptide C is a monomeric random coil peptide in both aqueous and hydrophobic media, its retention behavior over the temperature range 5° C. to 80° C. represents only general temperature effects on peptide retention behavior, i.e., a linear decrease in peptide retention time with increasing temperature due to greater solute diffusivity and enhanced mass transfer between the stationary and mobile phases at higher temperatures (55). Thus, after normalization to the retention times of peptide C, the retention behavior of the peptides represents only peptide self-association ability. Note that the higher the PA value, the greater the self-association ability. […] From Table 4, it is also clear that the peptide retention times at 80° C. are dramatically lower than those at 5° C.
Elution times during RP-HPLC have frequently been utilized as a measure of relative hydrophobicity of peptide analogs (26, 31). In the current study, peptide analogs differed only by a single amino acid substitution on either the non-polar face or the polar face of V681; thus, the retention time data in Table 5 can be considered to reflect the hydrophobicity difference between peptide analogs. In order to more easily visualize the variation in hydrophobicity of the peptide analogs, the retention time data in Table 5 were normalized relative to that of the native peptide V681 at 5° C. and 80° C., respectively. Hydrophobicity relative to the native peptide V681 indicates an increase or decrease of the apparent peptide hydrophobicity with the different amino acid substitutions on the polar or non-polar face. […]

As to “Ac-ELEKGGLEGEKGGKELEK-amide (Ac-ELEKGGLEGEKGGKELEK-NH2) [peptide C, reference compound]”, the “[θ]222” value in data set [1] is given as −3,950. For the same substance, in data set [2] (RP-HPLC retention time at 5° C. during temperature profiling (measure of hydrophobicity)), the “tR (min) 5° C.” value is listed as 22.74 min. Besides, the “tR (min) 80° C.” value in data set [2] (RP-HPLC retention time at 80° C. during temperature profiling) turned out to be 18.64 min.
